# Test results reported in IntAct's records for PubMed 31515488.
# B1: Mothers against decapentaplegic homolog 4 (Homo sapiens), Q13485 (parent)
# chain: MDNMSITNTPTSNDACLSIVHSLMCHRQGGESETFAKRAIESLVKKLKEKKDELDSLITAITTNGAHPSKCVTIQRTLDGRLQVAGRKGFPHVIYARLWRWPDLHKNELKHVKYCQYAFDLKCDSVCVNPYHYERVVSPGIDLSGLTLQSNAPSSMMVKDEYVHDFEGQPSLSTEGHSIQTIQHPPSNRASTETYSTPALLAPSESNATSTANFPNIPVASTSQPASILGGSHSEGLLQIASGPQPGQQQNGFTGQPATYHHNSTTTWTGSRTAPYTPNLPHHQNGHLQHHPPMPPHPGHYWPVHNELAFQPPISNHPAPEYWCSIAYFEMDVQVGETFKVPSSCPIVTVDGYVDPSGGDRFCLGQLSNVHRTEAIERARLHIGKGVQLECKGEGDVWVRCLSDHAVFVQSYYLDREAGRAPGDAVHKIYPSAYIKVFDLRQCHRQMQQQAATAQAAAAAQAAAVAGNIPGPGSVGGIAPAISLSAAAGIGVDDLRRLCILRMSFVKGWGPDYPRQSIKETPCWIEIHLHRALQLLDEVLHTMPIADPQPLD
# B2: F-box only protein 11 (Homo sapiens), Q86XK2 (parent)
# chain: MNSVRAANRRPRRVSRPRPVQQQQQQPPQQPPPQPPQQQPPQQQPPPPPQQQQQQQPPPPPPPPPPLPQERNNVGERDDDVPADMVAEESGPGAQNSPYQLRRKTLLPKRTACPTKNSMEGASTSTTENFGHRAKRARVSGKSQDLSAAPAEQYLQEKLPDEVVLKIFSYLLEQDLCRAACVCKRFSELANDPILWKRLYMEVFEYTRPMMHPEPGKFYQINPEEYEHPNPWKESFQQLYKGAHVKPGFAEHFYSNPARYKGRENMLYYDTIEDALGGVQEAHFDGLIFVHSGIYTDEWIYIESPITMIGAAPGKVADKVIIENTRDSTFVFMEGSEDAYVGYMTIRFNPDDKSAQHHNAHHCLEITVNCSPIIDHCIIRSTCTVGSAVCVSGQGACPTIKHCNISDCENVGLYITDHAQGIYEDNEISNNALAGIWVKNHGNPIIRRNHIHHGRDVGVFTFDHGMGYFESCNIHRNRIAGFEVKAYANPTVVRCEIHHGQTGGIYVHEKGRGQFIENKIYANNFAGVWITSNSDPTIRGNSIFNGNQGGVYIFGDGRGLIEGNDIYGNALAGIQIRTNSCPIVRHNKIHDGQHGGIYVHEKGQGVIEENEVYSNTLAGVWVTTGSTPVLRRNRIHSGKQVGVYFYDNGHGVLEDNDIYNHMYSGVQIRTGSNPKIRRNKIWGGQNGGILVYNSGLGCIEDNEIFDNAMAGVWIKTDSNPTLRRNKIHDGRDGGICIFNGGRGLLEENDIFRNAQAGVLISTNSHPILRKNRIFDGFAAGIEITNHATATLEGNQIFNNRFGGLFLASGVNVTMKDNKIMNNQDAIEKAVSRGQCLYKISSYTSYPMHDFYRCHTCNTTDRNAICVNCIKKCHQGHDVEFIRHDRFFCDCGAGTLSNPCTLAGEPTHDTDTLYDSAPPIESNTLQHN
# B3: Sulfotransferase 1A1 (Homo sapiens), P50225 (parent)
# chain: MELIQDTSRPPLEYVKGVPLIKYFAEALGPLQSFQARPDDLLISTYPKSGTTWVSQILDMIYQGGDLEKCHRAPIFMRVPFLEFKAPGIPSGMETLKDTPAPRLLKTHLPLALLPQTLLDQKVKVVYVARNAKDVAVSYYHFYHMAKVHPEPGTWDSFLEKFMVGEVSYGSWYQHVQEWWELSRTHPVLYLFYEDMKENPKREIQKILEFVGRSLPEETVDFVVQHTSFKEMKKNPMTNYTTVPQEFMDHSISPFMRKGMAGDWKTTFTVAQNERFDADYAEKMAGCSLSFRSEL
# partner: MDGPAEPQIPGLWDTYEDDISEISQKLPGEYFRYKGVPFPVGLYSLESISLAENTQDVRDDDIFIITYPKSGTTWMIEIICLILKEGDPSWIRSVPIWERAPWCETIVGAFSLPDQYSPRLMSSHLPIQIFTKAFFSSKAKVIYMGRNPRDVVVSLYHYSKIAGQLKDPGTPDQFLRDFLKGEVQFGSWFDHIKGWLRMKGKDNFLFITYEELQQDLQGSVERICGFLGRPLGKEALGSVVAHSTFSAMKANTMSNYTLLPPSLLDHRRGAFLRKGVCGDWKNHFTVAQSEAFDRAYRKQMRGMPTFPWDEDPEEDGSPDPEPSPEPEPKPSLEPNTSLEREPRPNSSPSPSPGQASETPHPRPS
# B4: Protein ZNRD2 (Homo sapiens), O60232 (parent)
# chain: MALNGAEVDDFSWEPPTEAETKVLQARRERQDRISRLMGDYLLRGYRMLGETCADCGTILLQDKQRKIYCVACQELDSDVDKDNPALNAQAALSQAREHQLASASELPLGSRPAPQPPVPRPEHCEGAAAGLKAAQGPPAPAVPPNTDVMACTQTALLQKLTWASAELGSSTSLETSIQLCGLIRACAEALRSLQQLQH
# partner: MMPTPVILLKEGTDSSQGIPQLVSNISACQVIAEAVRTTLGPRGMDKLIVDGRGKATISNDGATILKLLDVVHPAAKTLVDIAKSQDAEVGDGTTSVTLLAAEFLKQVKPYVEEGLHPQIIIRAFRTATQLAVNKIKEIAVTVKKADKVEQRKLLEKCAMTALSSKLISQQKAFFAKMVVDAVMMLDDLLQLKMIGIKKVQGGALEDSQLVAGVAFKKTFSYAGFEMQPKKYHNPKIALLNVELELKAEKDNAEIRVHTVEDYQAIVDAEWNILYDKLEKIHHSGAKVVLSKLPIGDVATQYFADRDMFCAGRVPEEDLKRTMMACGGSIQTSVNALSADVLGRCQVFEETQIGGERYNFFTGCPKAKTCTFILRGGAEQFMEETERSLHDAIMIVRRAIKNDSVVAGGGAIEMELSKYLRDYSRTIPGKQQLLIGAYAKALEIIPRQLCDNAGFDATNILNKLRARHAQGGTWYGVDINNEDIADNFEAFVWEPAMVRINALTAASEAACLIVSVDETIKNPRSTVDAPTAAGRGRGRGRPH
# B5: Transcription factor 12 (Homo sapiens), Q99081-3 (parent)
# chain: MNPQQQRMAAIGTDKELSDLLDFSAMFSPPVNSGKTRPTTLGSSQFSGSGIDERGGTTSWGTSGQPSPSYDSSRGFTDSPHYSDHLNDSRLGAHEGLSPTPFMNSNLMGKTSERGSFSLYSRDTGLPGCQSSLLRQDLGLGSPAQLSSSGKPGTAYYSFSATSSRRRPLHDSAALDPLQAKKVRKVPPGLPSSVYAPSPNSDDFNRESPSYPSPKPPTSMFASTFFMQDGTHNSSDLWSSSNGMSQPGFGGILGTSTSHMSQSSSYGNLHSHDRLSYPPHSVSPTDINTSLPPMSSFHRGSTSSSPYVAASHTPPINGSDSILGTRGNAAGSSQTGDALGKALASIYSPDHTSSSFPSNPSTPVGSPSPLTGTSQWPRPGGQAPSSPSYENSLHSLKNRVEQQLHEHLQDAMSFLKDVCEQSRMEDRLDRLDDAIHVLRNHAVGPSTSLPAGHSDIHSLLGPSHNAPIGSLNSNYGGSSLVASSRSASMVGTHREDSVSLNGNHSVLSSTVTTSSTDLNHKTQENYRGGLQSQSGTVVTTEIKTENKEKDENLHEPPSSDDMKSDDESSQKDIKVSSRGRTSSTNEDEDLNPEQKIEREKERRMANNARERLRVRDINEAFKELGRMCQLHLKSEKPQTKLLILHQAVAVILSLEQQVRERNLNPKAACLKRREEEKVSAVSAEPPTTLPGTHPGLSETTNPMGHM
# partner: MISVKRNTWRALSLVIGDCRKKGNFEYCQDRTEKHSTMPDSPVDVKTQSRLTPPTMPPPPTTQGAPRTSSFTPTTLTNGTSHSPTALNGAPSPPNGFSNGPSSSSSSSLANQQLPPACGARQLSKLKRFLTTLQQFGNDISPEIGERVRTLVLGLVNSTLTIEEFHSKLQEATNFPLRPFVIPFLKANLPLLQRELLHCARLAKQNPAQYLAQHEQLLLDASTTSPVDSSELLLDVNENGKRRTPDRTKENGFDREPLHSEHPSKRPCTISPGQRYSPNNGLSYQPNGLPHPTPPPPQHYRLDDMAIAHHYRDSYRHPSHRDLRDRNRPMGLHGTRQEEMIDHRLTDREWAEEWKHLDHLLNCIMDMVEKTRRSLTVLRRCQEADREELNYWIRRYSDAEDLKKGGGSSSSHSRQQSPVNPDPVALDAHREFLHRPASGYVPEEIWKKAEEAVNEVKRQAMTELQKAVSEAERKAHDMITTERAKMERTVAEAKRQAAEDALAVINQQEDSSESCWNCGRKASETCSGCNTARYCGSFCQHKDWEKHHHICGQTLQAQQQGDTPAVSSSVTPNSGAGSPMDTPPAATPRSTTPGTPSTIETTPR
# Variants of: B1
# Settings: with ews_human EWSR1, Q01844
# Sequence of ews_human EWSR1, Q01844 (Q01844 whole entry): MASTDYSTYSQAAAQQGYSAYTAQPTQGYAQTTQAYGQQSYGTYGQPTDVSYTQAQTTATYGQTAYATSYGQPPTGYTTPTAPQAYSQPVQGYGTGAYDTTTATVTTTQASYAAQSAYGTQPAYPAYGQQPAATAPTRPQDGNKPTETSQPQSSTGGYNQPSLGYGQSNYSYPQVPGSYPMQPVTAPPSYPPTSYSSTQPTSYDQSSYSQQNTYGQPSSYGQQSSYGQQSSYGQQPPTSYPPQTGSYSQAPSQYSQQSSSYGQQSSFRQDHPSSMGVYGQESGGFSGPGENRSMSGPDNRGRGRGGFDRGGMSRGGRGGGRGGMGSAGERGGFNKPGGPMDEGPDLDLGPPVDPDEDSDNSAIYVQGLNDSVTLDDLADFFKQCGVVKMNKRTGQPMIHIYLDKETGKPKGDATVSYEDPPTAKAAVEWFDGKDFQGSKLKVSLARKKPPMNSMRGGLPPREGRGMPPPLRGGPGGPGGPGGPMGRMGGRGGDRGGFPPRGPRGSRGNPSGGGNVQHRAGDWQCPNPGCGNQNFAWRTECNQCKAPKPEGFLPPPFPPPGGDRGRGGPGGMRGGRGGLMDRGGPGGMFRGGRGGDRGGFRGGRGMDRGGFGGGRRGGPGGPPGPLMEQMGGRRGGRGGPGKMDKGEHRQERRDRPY
row,effect of a mutation on the interaction,Variant
1,with no effect,T174N
2,with no effect,R76I

# Variants of: B1
# Settings: with smad3_human SMAD3, P84022
# Sequence of smad3_human SMAD3, P84022 (P84022 whole entry, looked up): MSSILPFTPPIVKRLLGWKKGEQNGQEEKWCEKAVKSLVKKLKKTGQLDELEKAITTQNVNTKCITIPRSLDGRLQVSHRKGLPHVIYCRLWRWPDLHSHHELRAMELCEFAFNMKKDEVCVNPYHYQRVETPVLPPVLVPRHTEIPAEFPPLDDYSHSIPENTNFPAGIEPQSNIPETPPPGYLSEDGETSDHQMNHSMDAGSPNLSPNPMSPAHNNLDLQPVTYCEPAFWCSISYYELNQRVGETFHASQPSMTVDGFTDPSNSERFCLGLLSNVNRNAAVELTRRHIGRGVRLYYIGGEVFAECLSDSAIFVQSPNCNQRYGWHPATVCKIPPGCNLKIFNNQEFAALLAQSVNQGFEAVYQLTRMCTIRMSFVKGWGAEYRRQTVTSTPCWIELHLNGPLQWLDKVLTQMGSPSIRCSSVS
row,effect of a mutation on the interaction,Variant
1,with no effect,T174N
2,with no effect,R76I

# Variants of: B2
# Settings: with skp1_human SKP1, P63208
# Sequence of skp1_human SKP1, P63208 (P63208 whole entry): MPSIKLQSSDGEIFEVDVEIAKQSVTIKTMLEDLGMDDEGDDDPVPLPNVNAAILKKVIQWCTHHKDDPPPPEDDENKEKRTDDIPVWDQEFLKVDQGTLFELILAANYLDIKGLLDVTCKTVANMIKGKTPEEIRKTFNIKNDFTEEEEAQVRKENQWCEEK
row,effect of a mutation on the interaction,Variant
1,with no effect,Y226C
2,with no effect,I306V

# Variants of: B3
# Settings: with st2b1_human SULT2B1, O00204
row,effect of a mutation on the interaction,Variant
1,with no effect,V223M

# Variants of: B4
# Settings: with tcph_human CCT7, Q99832
row,effect of a mutation on the interaction,Variant
1,with no effect,T21M

# Variants of: B5
# Settings: with mtg8_human RUNX1T1, Q06455
row,effect of a mutation on the interaction,Variant
1,with no effect,A155T
2,with no effect,Y120C
3,with no effect,S446F
